First the molecules themselves.
T1: PNPase carrying a C-terminal Hisx6 tag (E. coli polynucleotide phosphorylase) (E. coli, UniProt P05055 1-711)
T1 construct: polynucleotide phosphorylase (PNPase), E. coli; Immobilised through the His tag on an NTA chip for SPR; also called PNPase C-His; PNPase with a 6xHisTag at the CTD; source: E. coli Evo21(DE3), purified (Ni-NTA, butyl-Sepharose HIC, Q, Superdex S200); not shown: His6, C-terminal, kept
T1 sequence (looked up): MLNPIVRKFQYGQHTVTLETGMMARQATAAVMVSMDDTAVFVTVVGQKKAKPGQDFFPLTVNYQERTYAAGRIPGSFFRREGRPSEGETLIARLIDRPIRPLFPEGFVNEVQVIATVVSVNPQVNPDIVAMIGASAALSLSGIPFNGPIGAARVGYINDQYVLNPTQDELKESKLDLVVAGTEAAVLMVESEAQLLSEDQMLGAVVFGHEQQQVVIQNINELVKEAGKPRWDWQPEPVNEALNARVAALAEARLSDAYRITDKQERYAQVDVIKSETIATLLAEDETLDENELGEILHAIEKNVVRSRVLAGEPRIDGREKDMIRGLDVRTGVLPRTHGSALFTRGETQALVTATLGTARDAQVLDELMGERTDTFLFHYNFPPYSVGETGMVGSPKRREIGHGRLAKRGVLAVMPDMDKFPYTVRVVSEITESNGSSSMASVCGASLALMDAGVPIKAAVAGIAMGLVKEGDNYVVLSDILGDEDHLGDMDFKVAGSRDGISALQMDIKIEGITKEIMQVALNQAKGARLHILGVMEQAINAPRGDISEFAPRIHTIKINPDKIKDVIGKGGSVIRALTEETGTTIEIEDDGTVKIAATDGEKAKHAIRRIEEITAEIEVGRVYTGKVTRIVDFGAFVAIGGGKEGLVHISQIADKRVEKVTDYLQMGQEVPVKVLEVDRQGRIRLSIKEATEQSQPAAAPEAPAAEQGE

T2: PNPase carrying a C-terminal Hisx6 tag (E. coli polynucleotide phosphorylase) (E. coli, UniProt P05055 1-711)
T2 construct: Held on the NTA chip by its His tag in the SPR; also called PNPase C-His; PNPCHis; source: E. coli Evo21(DE3), purified (Ni-NTA, butyl-Sepharose, Q, SEC); not shown: His6, C-terminal, kept
T2 sequence (looked up): T1 sequence (looked up)

B1: RNase E 985-1053 (domain or fragment, E. coli, UniProt P21513 985-1053, looked up)
chain: VAAEVETVAAVEPEVTVEHNHATAPMTRAPAPEYVPEAPRHSDWQRPTFAFEGKGAAGGHTATHHASAA
notes: the SPR methods name a peptide 960–1053; Lacks the terminal Pro-rich motif; Limits differ between results (985–1053) and methods (960–1053); also called RNase E peptide 985–1053; RNase E 960–1053 (methods); source: E. coli Evo21(DE3), pMxe vector, purified (Ni-NTA, amylose, TEV, Q, Superdex 75); not shown: His6, N-terminal, cleaved; MBP, N-terminal, cleaved; intein, C-terminal, cleaved
B2: E. coli PNPase core (domain or fragment, UniProt P05055 1-552, looked up)
chain: MLNPIVRKFQYGQHTVTLETGMMARQATAAVMVSMDDTAVFVTVVGQKKAKPGQDFFPLTVNYQERTYAAGRIPGSFFRREGRPSEGETLIARLIDRPIRPLFPEGFVNEVQVIATVVSVNPQVNPDIVAMIGASAALSLSGIPFNGPIGAARVGYINDQYVLNPTQDELKESKLDLVVAGTEAAVLMVESEAQLLSEDQMLGAVVFGHEQQQVVIQNINELVKEAGKPRWDWQPEPVNEALNARVAALAEARLSDAYRITDKQERYAQVDVIKSETIATLLAEDETLDENELGEILHAIEKNVVRSRVLAGEPRIDGREKDMIRGLDVRTGVLPRTHGSALFTRGETQALVTATLGTARDAQVLDELMGERTDTFLFHYNFPPYSVGETGMVGSPKRREIGHGRLAKRGVLAVMPDMDKFPYTVRVVSEITESNGSSSMASVCGASLALMDAGVPIKAAVAGIAMGLVKEGDNYVVLSDILGDEDHLGDMDFKVAGSRDGISALQMDIKIEGITKEIMQVALNQAKGARLHILGVMEQAINAPRGDISEFA
notes: polynucleotide phosphorylase (PNPase) core lacking the KH and S1 domains, E. coli, aa 1–552 by the methods (1–550 in the results and a legend); also called PNPase core (1–550); PNPase core (aa 1–552); source: E. coli Evo21(DE3), purified (Ni-NTA, intein cleavage, HIC, Q, Superdex 200); not shown: Mycobacterium xenopi GyrA intein, C-terminal, cleaved; His8, C-terminal, cleaved
B3: RNase E 960 – 1061 R1056A (domain or fragment, E. coli, UniProt P21513 960-1061, looked up)
chain: VVETAEVVVAEPEVVAQPAAPVVAEVAAEVETVAAVEPEVTVEHNHATAPMTRAPAPEYVPEAPRHSDWQRPTFAFEGKGAAGGHTATHHASAAPAAPQPVE
notes: source: E. coli Evo21(DE3), purified (Ni-NTA, amylose, TEV cleavage, Q, SEC); not shown: His6, N-terminal, cleaved; MBP, N-terminal, cleaved; intein, C-terminal, cleaved
B4: E. coli RNase E 921–1061-muGFP (domain or fragment, UniProt P21513 921-1061, looked up)
chain: AVTEQPQVITESDVAVAQEVAEQAEPVVEPQEETADIEEVVETAEVVVAEPEVVAQPAAPVVAEVAAEVETVAAVEPEVTVEHNHATAPMTRAPAPEYVPEAPRHSDWQRPTFAFEGKGAAGGHTATHHASAAPARPQPVE
notes: Only residues 1003–1057 are built in the model; also called RNase E-muGFP-Chis; RNE-muGFP-CHis; source: E. coli Evo21(DE3), purified (Ni-NTA, amylose, TEV, Q, Superdex 200); not shown: MBP, N-terminal, cleaved; muGFP, C-terminal, kept; His8, C-terminal, kept
B5: RNase E 921–1061-muGFP (protein, UniProt P21513 921-1061, looked up, fragment)
chain: B4 chain
modifications: muGFP fusion

The target of series [1] is S. enterica PNPase core (Salmonella enterica serovar Typhimurium) (UniProt Q8ZLT3). In words: cryo-EM structure; purified PNPase core and RNase E-muGFP-CHis mixed 1:2, complex separated on Superdex 200 Increase in 20 mM Tris–HCl pH 8.0, 25 mM MgCl2, 150 mM KCl, 1 mM TCEP; 8 mM CHAPSO; E. coli and S. enterica proteins.
Series [2] addresses T1, PNPase carrying a C-terminal Hisx6 tag …. Kind of series: SPR; PNPase with C-terminal His6 tag immobilised on Series S Sensor Chip NTA (5 RU); Biacore T200, 25°C; 20 mM HEPES pH 7.2, 150 mM NaCl, 5 mM MgCl2, 0.5 mM TCEP, 0.05% Tween 20; six peptide concentrations up to 9000 nM (up to 5000 nM for RNase E 985–1061); contact 60 s, dissociation 120 s. To be noted: both partners purified. For orientation: In SPR one partner is held on a chip, and binding of the other changes the refractive index at the surface.

Series [3] has the same target. The series is described as above. As to conditions: both partners purified. The source holds these as a separate data set.
Series [4] concerns the molecule itself. Kind of series: cryo-EM structure; PNPase core with RNase E peptide 960–1061; resolution of the peptide insufficient to align the sequence.
The target of series [5] is T2, PNPase carrying a C-terminal Hisx6 tag …. Kind of series: SPR. To be noted: both partners purified.
The target in the series “E. coli PNPase core” is B2. Kind of series: cryo-EM structure; purified PNPase core and RNase E-muGFP-CHis mixed 1:2, complex separated on Superdex 200 Increase in 20 mM Tris–HCl pH 8.0, 25 mM MgCl2, 150 mM KCl, 1 mM TCEP; 8 mM CHAPSO; E. coli and S. enterica proteins. As to conditions: both partners purified.
The next series relates to PNPase core. Kind of series: Cryo-EM of E. coli PNPase core:RNase E complex. The class given is binding. To be noted: 20 mM Tris–HCl pH 8.0, 25 mM MgCl2, 150 mM KCl, 1 mM TCEP. How it is done: The PNPase core encoding sequence from E. coli (aa 1–552), Salmonella enterica serovar Typhimurium (UniProt: Q8ZLT3) (aa 1–552), or Pseudomonas aeruginosa (strain PAO1, UniProt: Q9HV59) (aa 1–553) was amplified using corresponding genomic DNA as a template and cloned into pExp-Mxe-CHis expression vector. The protein of interest, produced as a fusion with C-terminal 8×His-tagged Mycobacterium xenopi GyrA intein, was expressed in Evo21(DE3) cells at 18°C overnight following induction with 0.4 mM IPTG. […] After cleavage, the protein buffer was exchanged using HiPrep 26/10 desalting column (Cytiva), and the protein solution was reapplied to Ni-NTA resin to remove His-tagged intein and uncleaved material. […]
Purified PNPase core and RNE-muGFP-CHis proteins were mixed in 1:2 ratio and their complex were separated on the Superdex 200 Increase 10/300 GL column (Cytiva) equilibrated with cryo-EM Buffer (20 mM Tris–HCl, pH 8.0, 25 mM MgCl2, 150 mM KCl, 1 mM TCEP). […] The samples were mixed with CHAPSO (3-([3-cholamidopropyl]dimethylammonio)-2-hydroxy-1-propanesulfonate) at a final concentration of 8 mM before being applied onto R2/2 Au Ultrafoil grids (Quantifoil) that had been pre-treated by glow-discharge (PELCO easiGLOW: 60 s, 25 mA, 0.39 mBar). […]

In turn, “S. enterica RNase E 921–1067-muGFP (domain or fragment)” displayed a stoichiometry N (RNase E peptide per PNPase trimer) in series [1] of 1.

By Kd is commonly meant the constant that tells how readily two partners part at equilibrium. The koff is the rate constant with which the complex falls apart. Lower therefore signals slow dissociation. The kon is a measure of how fast the partners come together. As to B1, the Kd in series [2] was 100 µM. For the same molecule, in series [3], the Kd was 11.5 µM, the koff was determined as 0.339 s⁻¹ and the kon came out at 29400 M⁻¹ s⁻¹.

What is called stoichiometry N is a count of units in the complex or per binding partner. For the molecule B2, the “stoichiometry N” value in series [4] amounted to 3.

The molecule B3 gave a kon in series [5] of 150000 M⁻¹ s⁻¹.

As for B4, the “stoichiometry N” value in the series with E. coli PNPase core is 1 RNase E peptide per PNPase trimer.

Turning to B5, the “binding mode / stoichiometry with E. coli PNPase core” value in the series with PNPase core was “only one RNase E peptide engages with a PNPase trimer, interacting with two protomers”.
